These binders were tested against T1, Human α-actinin-2 EF3-4 (positions 827-894) (human, UniProt P35609 827-894) (assay: ITC; MicroCal PEAQ, 25 °C, 25 mM HEPES pH 7.5, 150 mM NaCl; syringe 500 μM CaMKIIα peptide, cell 50 μM EF3-4; single site binding model). Settings: both partners purified.
T1 construct: α-actinin-2, human, third and fourth EF hands, positions 827-894; also called α-actinin-2 EF hands 3-4; source: E. coli Rosetta pLysS, purified (Ni-NTA, Glutathione Sepharose, Tev cleavage, Superdex 75); not shown: His, N-terminal, cleaved; GST, N-terminal, cleaved
T1 sequence (P35609 827-894): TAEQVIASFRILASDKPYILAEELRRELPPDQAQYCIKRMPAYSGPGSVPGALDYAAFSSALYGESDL

| Binder | Kd [µM] |
| --- | --- |
| NARRKLKGAILAAMLATRNFSG (peptide, UniProt P11275 294-315, looked up, Probably a synthetic peptide; also called AA isolated regulatory segment) [CaMKIIα 294-315 peptide T305A/T306A] | 14.7 ± 1.2 |
| NARRKLKGAILATMLATRNFSG (peptide, UniProt P11275 294-315, looked up, Probably a synthetic peptide; also called T305A regulatory segment) [CaMKIIα 294-315 peptide T305A] | 19.4 ± 0.7 |
| NARRKLKGAILTAMLATRNFSG (peptide, UniProt P11275 294-315, looked up, Probably a synthetic peptide; also called T306A regulatory segment) [CaMKIIα 294-315 peptide T306A] | 19.8 ± 1.9 |
| LKKFNARRKLKGAILTTMLA (peptide, UniProt P11275 290-309, looked up, CaMKIIα regulatory segment, residues 290-309; Probably a synthetic peptide; also called WT CaMKIIα 290-309; N-terminally shifted regulatory segment peptide (WT)) [CaMKIIα 290-309 peptide WT] | 3.46 ± 0.08 |
| LKKFNARRKLKGAILAAMLA (peptide, UniProt P11275 290-309, looked up, CaMKIIα regulatory segment, residues 290-309; Probably a synthetic peptide; also called AA CaMKIIα 290-309; N-terminally shifted regulatory segment peptide (AA)) [CaMKIIα 290-309 peptide AA (T305A/T306A)] | 0.146 ± 0.012 |
